Test results published in publication PMC3983030, “Ras GTPase-Like Protein MglA, a Controller of Bacterial Social-Motility in Myxobacteria, Has Evolved to Control Bacterial Predation by Bdellovibrio” (PLoS Genetics, 2014).

Molecular target: T1, His6-tagged Bd2492 (Bd2492-His6) expressed in E. coli from plasmid pD2492N/3734 (Bdellovibrio bacteriovorus HD100, UniProt Q6MKB3 1-353)
T1 construct: Bd2492, 353 amino acid TPR protein of Bdellovibrio bacteriovorus HD100; The label Bd2492-His6 hints at a C-terminal tag and the plasmid name pD2492N at an N-terminal one; also called TPRBd; source: E. coli, heterologously co-expressed with MglA from plasmid pD2492N/3734
T1 sequence (looked up): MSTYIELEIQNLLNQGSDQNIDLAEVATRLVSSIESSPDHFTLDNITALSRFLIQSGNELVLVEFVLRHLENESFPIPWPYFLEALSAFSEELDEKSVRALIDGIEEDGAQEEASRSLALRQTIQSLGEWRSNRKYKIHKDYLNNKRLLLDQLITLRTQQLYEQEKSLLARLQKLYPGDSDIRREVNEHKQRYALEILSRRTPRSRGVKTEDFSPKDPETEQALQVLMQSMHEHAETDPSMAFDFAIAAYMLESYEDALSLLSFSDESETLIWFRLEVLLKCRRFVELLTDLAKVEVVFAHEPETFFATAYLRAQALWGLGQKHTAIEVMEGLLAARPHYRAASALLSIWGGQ
Experiment: SEC; gel filtration and SDS-PAGE of purified MglA and Bd2492-His6; data not shown
Conditions: both partners purified

B1: MglA (Bd3734) co-expressed in E. coli from plasmid pD2492N/3734 (natural protein, Bdellovibrio bacteriovorus HD100, UniProt Q6MH29 1-197, looked up)
chain: MSFINYNAKEIHCKVVYYGPSLGGKTTNIQWVYQKTAEDQKSKLVALNTDIERTLFFDFLPLNVGDIRGFKTRFHLYTVPGQVVYDASRKLILKGLDGVIFVADSQIERMDENLESLRNLERNLEQQGYDIREIPLIMQYNKRDLPNVASLAELRSALNPYNAPEIEGCASEGRGVFESLKTVSKSIINVLKGGTTL
notes: MglA (Bd3734) of Bdellovibrio bacteriovorus HD100; No tag is named on MglA in this construct; source: E. coli, heterologously co-expressed with Bd2492-His6 from plasmid pD2492N/3734
stoichiometry N: 1
